Laboratory results taken from patent US5876949, “Antibodies specific for fragile X related proteins and method of using the same” (The Trustees of the University of Pennsylvania, dated 1999).

Target: GAL4(1-147)-FMR1, FMR1 fused to the DNA binding domain of the yeast transcription factor GAL4 (plasmid … (yeast; human, UniProt P04386)
Assay: yeast two-hybrid, HIS3 and LacZ reporters in HF7C

- binding result: no binding
B1: GAL4 activation domain alone (empty vector pGAD424) (other)
chain: ANFNQSGNIADSSLSFTFTNSSNGPNLITTQTNSQALSQPIASSNVHDNFMNNEITASKIDDGNNSKPLSPGWTDQTAYNAFGITTGMFNTTTMDDVYNYLFDDEDTPPNPKKE
